Assay: yeast display, Sf9 membrane polyspecificity reagent, FACS + sequencing; frameworks hold sequencing errors
Outline: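 Nanobodies came from a synthetic yeast display library in Saccharomyces cerevisiae BJ5465, induced with galactose for 36–48 hours and stained for 1 hour at 4 °C with 10% biotinylated, detergent-solubilized Sf9 membrane reagent. Cells were enriched on streptavidin microbeads and then FACS-sorted, with low and high (top ~1%) gates set on anti-HA fluorescence for expression and streptavidin fluorescence for reagent binding. Each polyreactivity label reflects the gate a clone came from. Genes were amplified by colony PCR, sequenced by MiSeq 2 × 250 and filtered by CDR length.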
With “QVQLVESGGGLVQAGGSLRLSCAASGFIFAVYGMGWYTQAPGKQRELVAAISTGDSTKYADSVKGRFTISRDNAKNTVYLQMNSLNPEDTAVYYCAADGPYEGYDYWGQGTQVTVSS” the “polyreactivity (PSR sort gate)” value was “high polyreactivity”.
In the case of “QVQLVESGGGLVQAGGSLRLSCAASGFIFAWSAMGWYRQAPGKERELVAAISYSGGSTFYADSVKGRFTISRDNAKNTVYLQMNSLKPEDTAVYYCARYYRALGTARNDYWGQGTQVTVSS”, the “polyreactivity (PSR sort gate)” value is reported as “low polyreactivity”.
For “QVQLVESGGGLVQAGGSLRLSCAASGFIFAWYAMGWSRQAPGKERELVADISWGGGSTYYADSVKGRFTISRDNAKNTVYLQMNSLKPEDTAVYYCAATRPATYAAYDYWGQGTQVTVSS”, the “polyreactivity (PSR sort gate)” value was “high polyreactivity”.
With “QVQLVESGGGLVQAGGSLRLSCAASGFIFAYNAMGWYRQAPGKERELVASIRTRGGSTYYADSVKGRFTISRDNAKNTVYLQMNSLKPEDTAVYYCAARPFPRRYDYWGQGTQVTVSS” the “polyreactivity (PSR sort gate)” value was “low polyreactivity”.
With “QVQLVESGGGLVQAGGSLRLSCAASGFIFAYYAMGWYRQATGKERELVAGITRGSSTYYADSVKGRFTISRDNAKNTVYLQMNSLKPEDTAVYYCARGYTWFYAVWPEYDYWGEGTQVTVSS” the “polyreactivity (PSR sort gate)” value was “high polyreactivity”.
For “QVQLVESGGGLVQAGGSLRLSCAASGFIFDAYAMGWYRQAPGKERELVAAITRGNTYYADSVTGRFTISRDNAKNTVYLQMNSLKPEDTAVYYCAARYWQSYRSQVTHSSTLDYWGQGTQVTVSS”, the “polyreactivity (PSR sort gate)” value was “low polyreactivity”.
For “QVQLVESGGGLVQAGGSLRLSCAASGFIFDDNAMGWYRQAPGKERELVAAITSGGGSTYYADSVKGRFTISRDNAKNTVYLQMNSLKPEDTAVYYCARDQTWSYQPWYYLSYPQYEYWGQGTQVTVSS”, the “polyreactivity (PSR sort gate)” value was “low polyreactivity”.
With “QVQLVESGGGLVQAGGSLRLSCAASGFIFDDYAMGWYRQAPGKERELVAAISASGGRTFYADSVKGRFTISRDNAKNTVYLQMNSLKPEDTAVYYCATIVDTYVFRYYYWGQGTQVTVSS” the “polyreactivity (PSR sort gate)” value was “high polyreactivity”.
In the case of “QVQLVESGGGLVQAGGSLRLSCAASGFIFDFYAMGWYRQAPGKERELVATINSSGTTNYADSVKGRFTISRDNAKNTVYLEMISLKPEDTAVYDCATVEYLGHYTYDYWGQGTQVTVSS”, the “polyreactivity (PSR sort gate)” value is reported as “low polyreactivity”.
With “QVQLVESGGGLVQAGGSLRLSCAASGFIFDIYAMGWYRQAPGKERELVASINWSGGDSTSYADSVKGRFTISRDNAKNTVYLQMNSLKPEDTAVYYCNAEYWSYAGGYPDEYDYWGQGTQVTVSS” the “polyreactivity (PSR sort gate)” value was “low polyreactivity”.
With “QVQLVESGGGLVQAGGSLRLSCAASGFIFDIYAMGWYRQAPGKERELVASINWSGGDSTSYADSVKGRFTISRVNAKNTVSLQMNILKPEDTAVYYCIAEYWYYAGGYPDEYDYWGQGPQVTVSS” the “polyreactivity (PSR sort gate)” value was “low polyreactivity”.
For “QVQLVESGGGLVQAGGSLRLSCAASGFIFDQNAMGWYRQAPGKERELVAAISKRGGSTYYADSVKGRFTISRDNAKNTVYLQMNSLKPEDTAVYYCATRSWGPYYYGYNHWGQGTQETVSS”, the “polyreactivity (PSR sort gate)” value was “high polyreactivity”.
In the case of “QVQLVESGGGLVQAGGSLRLSCAASGFIFDRYAMGWYRQAPGKERELVAVISKSGGRTYYADSVKGRFTISRDHAKNTVYLQMNSLKPEDTAVYYCAAYYKSTYVTGDYWGQGTQVTVSS”, the “polyreactivity (PSR sort gate)” value is reported as “high polyreactivity”.
With “QVQLVESGGGLVQAGGSLRLSCAASGFIFDSYAMGWYRQAPGKERELVAAISYSGGNTYYADSVKGRFTISRDNAKNTVYLQMNSLKPEDTAVYYCAAEWSDSRWWRLWWYGEDDYWGQGTQVTVSS” the “polyreactivity (PSR sort gate)” value was “high polyreactivity”.
In the case of “QVQLVESGGGLVQAGGSLRLSCAASGFIFDTYVMGWYRQAPGKERELVAAISRTGGRTYYADSVKGRFTISRDNAKNTVYLQMNSLKPEDTAVYYCAAKVYYPYLFTSYDYWGQGTQVTVSS”, the “polyreactivity (PSR sort gate)” value is reported as “high polyreactivity”.
With “QVQLVESGGGLVQAGGSLRLSCAASGFIFDWNAMGWYRQAPGKERELVAAITWGGDGTFYADSVKGRFTISRDNAKNTVYLQMNSLKPEDTAVYYCAADSDSSFWWYYSWGQGTQVTVSS” the “polyreactivity (PSR sort gate)” value was “low polyreactivity”.
In the case of “QVQLVESGGGLVQAGGSLRLSCAASGFIFDYYAMGWYRHAPGKERELVAAITSRGGSTYYADSVKGRFTISRDNAKNTVYLQMNSLKPEDTAVYYCAARRRSAEYNYWGQGTQVTVSS”, the “polyreactivity (PSR sort gate)” value is reported as “high polyreactivity”.
For “QVQLVESGGGLVQAGGSLRLSCAASGFIFDYYAMGWYRQAPGKERELVAAISGSGTSTYYADSVKGRFTISRDNAKYTVYLQMNSLKPEDTAVYYCSAESDWWSDIGYYWGQGTQVTVSS”, the “polyreactivity (PSR sort gate)” value was “high polyreactivity”.
With “QVQLVESGGGLVQAGGSLRLSCAASGFIFDYYAMGWYRQAPGKERELVAGISRRGGSTYYADSVKGRFTISRDNAKNTVYLQMNSLKPEDTAVYYCNADAWRKVPHPGTGGRDYWGQGTQVTVSS” the “polyreactivity (PSR sort gate)” value was “high polyreactivity”.
For “QVQLVESGGGLVQAGGSLRLSCAASGFIFDYYAMGWYRQAPGKEWELVAGITRDGSTNYADSVKGRFTISRDNAKNTVYLQMNSLKPEDTAVYYCAAGPPRTRYRNARFDYWGQGTQVTVSS”, the “polyreactivity (PSR sort gate)” value was “high polyreactivity”.
With “QVQLVESGGGLVQAGGSLRLSCAASGFIFEKYTMGWYRQAPGKERELVAAITWNGGSTYYADSVKGRFTISRDNAKNTVYLQMNSLIPEDTAVYYCARDDRDISGESGREGFLYDYWGQGTQVTVSS” the “polyreactivity (PSR sort gate)” value was “low polyreactivity”.
With “QVQLVESGGGLVQAGGSLRLSCAASGFIFEPYAMGWYRQEPGKERELVAAISNSDSTNYADSVKGLFTISRDNAKNTVYLQMNSLKAEDTAVYYCNADFSKSYDYWGQGTQVTVSS” the “polyreactivity (PSR sort gate)” value was “low polyreactivity”.

Reference: the nanobody polyreactivity screen of Harvey et al. (2022)
